Measured values as given in the supplement of paper PMC9170038.

Tested on: MS2 coat protein
Assay: apparent KD of MS2 coat protein; designed switch direction (-1 OFF switch, 1 ON switch): -1; higher = weaker reporter binding
Method in brief: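 Three titration conditions were used: no input, 200 uM small-molecule ligand, and an oligonucleotide input. In each, SNAP-549-labelled MS2 coat protein was raised from 0.7 or 1.5 nM, doubling, to 3 µM over designed RNA switches transcribed on Illumina chips by stalled E. coli RNA polymerase. Curve fits of normalised cluster fluorescence gave values whose per-design median over clusters is the apparent KD.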

[1] = Eterna round: R95, input ligand: microRNA oligo, concentration not stated
[2] = input ligand: microRNA oligo, concentration not stated

Sequence | apparent KD of MS2 coat protein (Eterna round: R95, input ligand: FMN 200 uM) [µM] | apparent KD of MS2 coat protein [1] [µM] | apparent KD of MS2 coat protein (Eterna round: R95, input ligand: none) [µM] | apparent KD of MS2 coat protein (input ligand: FMN 200 uM) [µM] | apparent KD of MS2 coat protein [2] [µM] | apparent KD of MS2 coat protein (input ligand: none) [µM]
CCUUUGUCAGGAUAUCAGAACGCGCUCGAAAGGAACGCAAAUGAGAAGGGACAUGAGGAUCACCCAUGUAAAGA [Enenrixe] (puzzle: Exclusion 4) | 0.158 | 0.0428 | 0.045 |  |  | 
CCUAGUUGGUAAGGAUAUCCUACACUAUUCUGACCCGUGCAAGCUACAUGAGGAUCACCCAUGUGGGAGAAGGUGCGUCAACGU [Design 10] (Eterna round: R96, puzzle: Exclusion NG 2) |  |  |  | 0.0213 | 0.0182 | 0.0238
GAGUGAGCGUGAGGAAUAUACAUGAGGAUCACCCAUGUUUGCUAAUAUAUUGCUCGUCUUAUAACAACAAUUAACUG [Mod-hoo-honey#ab] (Eterna round: R97, puzzle: Sensor, turn-off variant 1) |  |  |  | 0.0126 |  | 0.0137
AAAAUAAACCUCAUUUAAAACAUGAGGAUCACCCAUGUAAAAUGCUCGUCUUAUUAAAUGUACUCCUAGUUCGUACA [My solution] (Eterna round: R97, puzzle: Sensor, turn-off variant 1) |  |  |  | 0.178 |  | 0.251
GGGCCACAUGAGGAUCACCCAUGUUAGGAUAUUUGUUCGGUGCUAUGAAUUCAAGGCUAGAGAAGGAACAGGGA [Eternabot (L1) Solution 46] (Eterna round: R97, puzzle: Exclusion 1) |  |  |  | 0.0224 |  | 0.023
GCGGAGUCGAUCGUGAGAUCGGAGACAUGAGGAUCACCCAUGUAGGAUAUCGAUUGCUUUGCAGUCGAGAAGGGCGUGCUCCGC [JL denovo 18] (Eterna round: R96, puzzle: Exclusion NG 3) |  |  |  | 0.0199 | 0.0186 | 0.0229
UCAUGUUUAGAGGAUAUGAUUACUUUUGAGUAAUCAGAAGGCUAGACAUGAGGAUCACCCAUGUCAUAACAUGA [Exclusion 6 - B - 15:d] (puzzle: Exclusion 6) |  | 0.0715 |  |  |  | 
GUCACAUGGACAUAGGAUCACAUGAGGAUCACCCAUGUGACUAACAAGCUUUUUGCUCGUCUUAUGUCCAUGUGAAU [Stov1/15-A3] (Eterna round: R97, puzzle: Sensor, turn-off variant 1) |  |  |  | 0.013 |  | 0.0129
GUCGAGUGAGGAUAUGGUGAGUAGUGCCAGAGCGCUGCUCACCAGAAGGCACAUGAGGAUCACCCAUGUAUAGC [Mat - Exclusion 4 - Mod of JL - D13] (puzzle: Exclusion 4) |  | 0.0152 |  |  |  | 
GUAACAUGCUGGUGAUCAUACAUGAGGAUCACCCAUGUAACAAGCUUUUUGUUCGUCUUAUAAUUUAAGAUCACCAG [Stov1/7-B3] (Eterna round: R97, puzzle: Sensor, turn-off variant 1) |  |  |  | 0.0198 |  | 0.0218
UAACUUAUUGUAAGGAUAUCGGUCCGAAAGGACAACGAGAAGGUACAUGAGGAUCACCCAUGUGAAAUAAGAAU [Mod of Zala 21 - Jieux - Brourd's Mod of Exclusion 4] (Eterna round: R97, puzzle: Brourd's mod of Exclusion 4) |  |  |  | 0.261 |  | 0.0294
AUAAGUGAUAAGGAUAUCACUAGCCUCGGCUAGUGAGAAGGUAUCACAUGAGGAUCACCCAUGUGUUCCAAUAA [Ex6/7-A2] (Eterna round: R97, puzzle: Exclusion 6) |  |  |  | 1.35 |  | 0.169
GUCCGACAUGAGGAUCACCCAUGUGAGGAUAUGCGAUUAGCUGCUAGGUAGUUAGUAUGUAGAAGGCGCAUGAA [EX1 #76] (Eterna round: R97, puzzle: Exclusion 1) |  |  |  | 0.0219 |  | 0.0245
AGAGUGCUGCGAGGAUAUACAUGAGGAUCACCCAUGUAAAUGUGUGAGGCUUUGCCUCACACAAUGUAGAAGGCGCAGUACUCA [Mat - Exclusion NG 2 - Mod of JL - D2] (Eterna round: R96, puzzle: Exclusion NG 2) |  |  |  | 0.019 | 0.0107 | 0.0144
ACAUGUAAUGCAGGAUAUCGGACACAUGAGGAUCACCCAUGUGACCUGAGGUAUUGCUAAGAGUCUGAGAAGGGUAUGUACAUG [Ex NG2 #51] (Eterna round: R96, puzzle: Exclusion NG 2) |  |  |  | 0.0287 | 0.0157 | 0.0204
CCGGUAUAGGAGGAUAUAGGAGUCGAUAGACACCUAGAAGGCCUGACAUGAGGAUCACCCAUGUGUCCUUCCGG [Fiskers Ex 6 - 95] (puzzle: Exclusion 6) |  | 0.0177 |  |  |  | 
AAAUUGCUAGAGGAUAUCGGAUAGAAUUUAUUACGAGAAGGUUAGACAUGAGGAUCACCCAUGUUCUGUUGGGA [EX6 #23] (Eterna round: R97, puzzle: Exclusion 6) |  |  |  | 0.0701 |  | 0.0291
UCUGGAGCAGGAUAUAUAUGACGUGCUUCGGCACGAAGGUCACAUGAGGAUCACCCAUGUAGAAGGGCUCCAGA [E2/9-D2] (Eterna round: R97, puzzle: Exclusion 2) |  |  |  | 0.344 |  | 0.0436
